Starred links: 1 amine or outer side, 2 acyl side, 3 side chain; linkers in the order of their positions; H or OH if unused. Non-standard residues stand in square brackets, D forms with d. Primed or numbered codes have the meaning given here. No end group written: not given here. *: point of attachment. Tyr(Me) = O-methyltyrosine, COc1ccc(C[C@H](N[*:1])C(=O)[*:2])cc1; Thr(Me) = O-methylthreonine, CO[C@H](C)[C@H](N[*:1])C(=O)[*:2]; Ala(piperidin-4-yl) = O=C([C@H](CC1CCN([*:3])CC1)N[*:1])[*:2]; Ser(Me)″ = O-methylserine, COC[C@H](N[*:1])C(=O)[*:2]; Phe(4-F) = N[C@@H](Cc1ccc(F)cc1)C(=O)O; 2Nal = N[C@@H](Cc1ccc2ccccc2c1)C(=O)O; Amidino = amidino group, N=C(N)*; Cha = N[C@@H](CC1CCCCC1)C(=O)O; 4Amb = NCc1ccc(C(=O)O)cc1; Nva = CCC[C@H](N)C(=O)O; 2Abz = Nc1ccccc1C(=O)O; Dap = NC[C@H](N)C(=O)O; Aib = CC(C)(N)C(=O)O; Inp = O=C(O)C1CCNCC1; Bz = O=C(c1ccccc1)*
T1: human Y2 receptor (human, UniProt P49146 1-381)
T1 sequence (looked up): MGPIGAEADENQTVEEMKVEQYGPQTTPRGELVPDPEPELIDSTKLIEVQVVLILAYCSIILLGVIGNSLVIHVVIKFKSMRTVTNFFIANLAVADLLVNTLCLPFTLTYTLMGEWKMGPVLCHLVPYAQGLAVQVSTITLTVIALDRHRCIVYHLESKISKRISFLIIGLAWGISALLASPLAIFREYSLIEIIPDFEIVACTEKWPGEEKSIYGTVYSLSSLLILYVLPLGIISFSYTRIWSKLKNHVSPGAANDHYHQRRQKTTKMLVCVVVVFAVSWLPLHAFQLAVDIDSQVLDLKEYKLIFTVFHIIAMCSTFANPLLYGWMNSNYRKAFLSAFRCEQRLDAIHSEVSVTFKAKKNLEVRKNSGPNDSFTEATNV


Legend:
[1] = target: human Y2 receptor (human) (UniProt P49146); assay: cell-based or functional assay
[2] = target: human Y2 receptor (human) (UniProt P49146); assay: RBA: [125I]-PYY displacement, hY2R/CHO membranes
human Y2 receptor [3] = target: T1, human Y2 receptor; assay: cell-based or functional assay
human Y2 receptor [4] = target: T1, human Y2 receptor; assay: RBA: [125I]-PYY displacement, hY2R/CHO membranes
Method in brief: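 Bound radioligand was collected by filtration on PEI-treated GF/C filters, washed with Tris/MgCl₂/NaCl/CHAPS buffer pH 7.4, and counted by scintillation; IC₅₀ values were calculated.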

Row | Molecule | GBA EC50 Ratio (vs PYY(3-36)), [35S]GTPγS [1] | IC50 Ratio (vs PYY(3-36)) [2] | GBA EC50 Ratio (vs PYY(3-36)), [35S]GTPγS (human Y2 receptor [3]) | IC50 Ratio (vs PYY(3-36)) (human Y2 receptor [4])
1 | Ac-[Ala26, Ile28,31, Arg(Me)35]-PYY(22-36) (peptide) | 13 | 50 | – | –
2 | Ac-[Iva23, D-Pro24, Cha27,28,36, Aib31]-PYY(23-36) (peptide) | 17 | 13 | – | –
3 | Ac-[D-Iva23, D-Pro24, Cha27,28,36, Aib31]-PYY(23-36) (peptide) | 31 | 20 | – | –
4 | Ac-[D-Pro24, Pya(4)26, Cha27,36, Aib28,31, Lys30]-PYY(23-36) (peptide) | 1.3 | 1.8 | – | –
5 | [N(2-hydroxyethyl)Gly23, D-Pro24, Cha27,28,36, Aib31]-PYY(23-36) (peptide) | 1.2 | 2 | – | –
6 | [(PEG2)23, D-Pro24, Cha27,28,36, Aib31]-PYY(23-36) (peptide) | 0.9 | 0.9 | – | –
7 | N-4-Pyridiniyl-[Pic(4)23, D-Pro24, Cha27,28,36, Aib31]-PYY(23-36) (peptide) | 3.4 | 4 | – | –
8 | Ac-[Aad23, D-Pro24, Cha27,28,36, Aib31]-PYY(23-36) (peptide) | 1.2 | 2.8 | – | –
9 | [N(iBu)Gly23, D-Pro24, Cha27,28,36, Aib31]-PYY(23-36) (peptide) | 2.4 | 5.8 | – | –
10 | Ac-[Hse23, D-Pro24, Cha27,28,36, Aib31]-PYY(23-36) (peptide) | 1.6 | 2.5 | – | –
11 | [Lys(Ac)23, D-Pro24, Cha27,28,36, Aib31]-PYY(23-36) (peptide) | 2.5 | 5.4 | – | –
12 | Ac-[Hyp23, D-Pro24, Cha27,28,36, Aib31]-PYY(23-36) (peptide) | 5 | 7.3 | – | –
13 | [βAla23, D-Pro24, Cha27,28,36, Aib31]-PYY(23-36) (peptide) | 1.2 | 1.7 | – | –
14 | Ac-[Lys(Me2)23, D-Pro24, Cha27,28,36, Aib31]-PYY(23-36) (peptide) | 1.3 | 0.92 | – | –
15 | Bz-R[Ser(Me)″][Cha][Cha]NL[Aib]TRQR[Cha]-NH2 (SMILES COC[C@H](NC(=O)[C@H](CCCNC(=N)N)NC(=O)c1ccccc1)C(=O)N[C@@H](CC1CCCCC1)C(=O)N[C@@H](CC1CCCCC1)C(=O)N[C@@H](CC(N)=O)C(=O)N[C@@H](CC(C)C)C(=O)NC(C)(C)C(=O)N[C@H](C(=O)N[C@@H](CCCNC(=N)N)C(=O)N[C@@H](CCC(N)=O)C(=O)N[C@@H](CCCNC(=N)N)C(=O)N[C@@H](CC1CCCCC1)C(N)=O)[C@@H](C)O) [Benzoyl-[Ser(Me)26, Cha27,28,36, Aib31]-PYY(25-36)] | 8.7 | 18 | – | –
16 | [4Amb]RAYIN[2Nal]ITRQRY-NH2 (N-terminus assumed; SMILES CC[C@H](C)[C@H](NC(=O)[C@H](Cc1ccc(O)cc1)NC(=O)[C@H](C)NC(=O)[C@H](CCCNC(=N)N)NC(=O)c1ccc(CN)cc1)C(=O)N[C@@H](CC(N)=O)C(=O)N[C@@H](Cc1ccc2ccccc2c1)C(=O)N[C@H](C(=O)N[C@H](C(=O)N[C@@H](CCCNC(=N)N)C(=O)N[C@@H](CCC(N)=O)C(=O)N[C@@H](CCCNC(=N)N)C(=O)N[C@@H](Cc1ccc(O)cc1)C(N)=O)[C@@H](C)O)[C@@H](C)CC, also called compound No. 56) [4-Aminomethylbenzoyl-[Ala26, Ile28,31, Nal(2)30]-PYY(25-36)] | – | – | 2.4 ratio | 4.1 ratio
17 | [4Amb]RAYIN[Phe(4-F)]ITRQRY-NH2 (N-terminus assumed; SMILES CC[C@H](C)[C@H](NC(=O)[C@H](Cc1ccc(O)cc1)NC(=O)[C@H](C)NC(=O)[C@H](CCCNC(=N)N)NC(=O)c1ccc(CN)cc1)C(=O)N[C@@H](CC(N)=O)C(=O)N[C@@H](Cc1ccc(F)cc1)C(=O)N[C@H](C(=O)N[C@H](C(=O)N[C@@H](CCCNC(=N)N)C(=O)N[C@@H](CCC(N)=O)C(=O)N[C@@H](CCCNC(=N)N)C(=O)N[C@@H](Cc1ccc(O)cc1)C(N)=O)[C@@H](C)O)[C@@H](C)CC, also called compound No. 58) [4-Aminomethylbenzoyl-[Ala26, Ile28,31, Phe(4F)30]-PYY(25-36)] | – | – | 2.9 ratio | 4.1 ratio
18 | [4Amb]RAYINLI[Nva]RQRY-NH2 (N-terminus assumed; SMILES CCC[C@H](NC(=O)[C@@H](NC(=O)[C@H](CC(C)C)NC(=O)[C@H](CC(N)=O)NC(=O)[C@@H](NC(=O)[C@H](Cc1ccc(O)cc1)NC(=O)[C@H](C)NC(=O)[C@H](CCCNC(=N)N)NC(=O)c1ccc(CN)cc1)[C@@H](C)CC)[C@@H](C)CC)C(=O)N[C@@H](CCCNC(=N)N)C(=O)N[C@@H](CCC(N)=O)C(=O)N[C@@H](CCCNC(=N)N)C(=O)N[C@@H](Cc1ccc(O)cc1)C(N)=O, also called compound No. 61) [4-Aminomethylbenzoyl-[Ala26, Ile28,31, Nva32]-PYY(25-36)] | – | – | 17 ratio | 29 ratio
19 | Bz-RH[Cha]INLRTRQR[Cha]-NH2 (SMILES CC[C@H](C)[C@H](NC(=O)[C@H](CC1CCCCC1)NC(=O)[C@H](Cc1c[nH]cn1)NC(=O)[C@H](CCCNC(=N)N)NC(=O)c1ccccc1)C(=O)N[C@@H](CC(N)=O)C(=O)N[C@@H](CC(C)C)C(=O)N[C@@H](CCCNC(=N)N)C(=O)N[C@H](C(=O)N[C@@H](CCCNC(=N)N)C(=O)N[C@@H](CCC(N)=O)C(=O)N[C@@H](CCCNC(=N)N)C(=O)N[C@@H](CC1CCCCC1)C(N)=O)[C@@H](C)O, also called compound No. 65) [Benzoyl-[Cha27,36, Ile28, Arg31]-PYY(25-36)] | – | – | 16 ratio | 15 ratio
20 | Bz-RH[Ala(piperidin-4-yl)]INWITRQR[Cha]-NH2 (also: Ala(4Pip) D or L form not assigned (later peak), Ala(4Pip) is any of D-form and L-form; also called compound No. 66) [Benzoyl-[Ala(4Pip)27, Ile28,31, Trp30, Cha36]-PYY(25-36)] | – | – | 2.9 ratio | 4.8 ratio
21 | Bz-RH[Dap]INWITRQR[Cha]-NH2 (SMILES CC[C@H](C)[C@H](NC(=O)[C@H](CN)NC(=O)[C@H](Cc1c[nH]cn1)NC(=O)[C@H](CCCNC(=N)N)NC(=O)c1ccccc1)C(=O)N[C@@H](CC(N)=O)C(=O)N[C@@H](Cc1c[nH]c2ccccc12)C(=O)N[C@H](C(=O)N[C@H](C(=O)N[C@@H](CCCNC(=N)N)C(=O)N[C@@H](CCC(N)=O)C(=O)N[C@@H](CCCNC(=N)N)C(=O)N[C@@H](CC1CCCCC1)C(N)=O)[C@@H](C)O)[C@@H](C)CC, also called compound No. 67) [Benzoyl-[Dap27, Ile28,31, Trp30, Cha36]-PYY(25-36)] | – | – | 22 ratio | 34 ratio
22 | Ac-YYASLRAYINLITRQRY-NH2 (also called compound No. 5) [Ac-[Ala26, Ile28,31]-PYY(20-36)] | – | – | 8.1 ratio | 9.8 ratio
23 | [2Abz]RH[Cha]INWITRQR[Cha]-NH2 (N-terminus assumed; SMILES CC[C@H](C)[C@H](NC(=O)[C@H](CC1CCCCC1)NC(=O)[C@H](Cc1c[nH]cn1)NC(=O)[C@H](CCCNC(=N)N)NC(=O)c1ccccc1N)C(=O)N[C@@H](CC(N)=O)C(=O)N[C@@H](Cc1c[nH]c2ccccc12)C(=O)N[C@H](C(=O)N[C@H](C(=O)N[C@@H](CCCNC(=N)N)C(=O)N[C@@H](CCC(N)=O)C(=O)N[C@@H](CCCNC(=N)N)C(=O)N[C@@H](CC1CCCCC1)C(N)=O)[C@@H](C)O)[C@@H](C)CC, also called compound No. 68) [[Abz(2)24, Cha27,36, Ile28,31, Trp30]-PYY(24-36)] | – | – | 15 ratio | 19 ratio
24 | Bz-RAYINLI[Thr(Me)]RQRY-NH2 (also called compound No. 74) [4-Aminomethylbenzoyl-[Ala26, Ile28,31, Thr(Me)32]-PYY(25-36)] | – | – | 24 ratio | 14 ratio
25 | [4Amb]RAYINLITRQR[Tyr(Me)]-NH2 (N-terminus assumed; SMILES CC[C@H](C)[C@H](NC(=O)[C@H](Cc1ccc(O)cc1)NC(=O)[C@H](C)NC(=O)[C@H](CCCNC(=N)N)NC(=O)c1ccc(CN)cc1)C(=O)N[C@@H](CC(N)=O)C(=O)N[C@@H](CC(C)C)C(=O)N[C@H](C(=O)N[C@H](C(=O)N[C@@H](CCCNC(=N)N)C(=O)N[C@@H](CCC(N)=O)C(=O)N[C@@H](CCCNC(=N)N)C(=O)N[C@@H](Cc1ccc(OC)cc1)C(N)=O)[C@@H](C)O)[C@@H](C)CC, also called compound No. 7) [4-Aminomethylbenzoyl-[Ala26, Ile28,31, Tyr(Me)36]-PYY(25-36)] | – | – | 4.7 ratio | 5 ratio
26 | Amidino-G[Inp]RH[Cha]INWITRQR[Cha]-NH2 (SMILES CC[C@H](C)[C@H](NC(=O)[C@H](CC1CCCCC1)NC(=O)[C@H](Cc1c[nH]cn1)NC(=O)[C@H](CCCNC(=N)N)NC(=O)C1CCN(C(=O)CNC(=N)N)CC1)C(=O)N[C@@H](CC(N)=O)C(=O)N[C@@H](Cc1c[nH]c2ccccc12)C(=O)N[C@H](C(=O)N[C@H](C(=O)N[C@@H](CCCNC(=N)N)C(=O)N[C@@H](CCC(N)=O)C(=O)N[C@@H](CCCNC(=N)N)C(=O)N[C@@H](CC1CCCCC1)C(N)=O)[C@@H](C)O)[C@@H](C)CC, also called compound No. 96) [Amidino-[Gly23, Pic(4)24, Cha27,36, Ile 28,31, Trp30]-PYY(23-36)] | – | – | 1.1 ratio | 1.9 ratio

Reference: US20120172293A1 (Takeda / Millennium, published 2012)
